Source: paper PMC10208126 (mAbs, 2023)

Columns and labels:
[1] = target: T1, Human IL-36R-Fc (human, UniProt Q9HB29 20-335); test: ELISA
T1 sequence (looked up): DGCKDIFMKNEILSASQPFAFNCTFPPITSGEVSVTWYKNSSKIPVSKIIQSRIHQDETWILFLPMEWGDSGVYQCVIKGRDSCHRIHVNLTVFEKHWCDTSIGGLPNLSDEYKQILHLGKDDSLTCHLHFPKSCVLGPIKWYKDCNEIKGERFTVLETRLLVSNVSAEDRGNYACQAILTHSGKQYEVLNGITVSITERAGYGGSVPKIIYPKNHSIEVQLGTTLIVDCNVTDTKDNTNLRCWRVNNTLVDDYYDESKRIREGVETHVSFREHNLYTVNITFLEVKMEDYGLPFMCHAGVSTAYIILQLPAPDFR

[2] = target: T2, Human IL1RAPL1-Fc (human, UniProt Q9NZN1 19-357); test: ELISA
T2 sequence (looked up): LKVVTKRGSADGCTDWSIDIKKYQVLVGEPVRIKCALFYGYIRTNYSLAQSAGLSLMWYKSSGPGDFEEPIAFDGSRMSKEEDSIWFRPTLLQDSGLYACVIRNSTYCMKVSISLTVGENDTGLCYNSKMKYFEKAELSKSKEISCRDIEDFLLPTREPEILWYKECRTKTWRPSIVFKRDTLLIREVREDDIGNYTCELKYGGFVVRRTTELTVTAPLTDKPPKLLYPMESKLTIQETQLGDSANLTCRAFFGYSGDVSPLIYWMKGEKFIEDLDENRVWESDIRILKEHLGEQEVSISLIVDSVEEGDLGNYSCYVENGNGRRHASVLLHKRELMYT

B1: Recombinant full length human IL-38 (ligand, UniProt Q8WWZ1 1-152, looked up)
chain: MCSLPMARYYIIKYADQKALYTRDGQLLVGDPVADNCCAEKICILPNRGLARTKVPIFLGIQGGSRCLACVETEEGPSLQLEDVNIEELYKGGEEATRFTFFQSSSGSAFRLEAAAWPGWFLCGPAEPQQPVQLTKESEPSARTKFYFEQSW
[1]
  binding result: binds
[2]
  binding result: binds
